Data on one substance can be found in US20190298850A1.

This assay deals with IL-21 (human) (UniProt Q9HBE4). Nature of the assay: cell-based or functional assay.
UniProt Q9HBE4, sequence (Q9HBE4 25-162 limits assumed): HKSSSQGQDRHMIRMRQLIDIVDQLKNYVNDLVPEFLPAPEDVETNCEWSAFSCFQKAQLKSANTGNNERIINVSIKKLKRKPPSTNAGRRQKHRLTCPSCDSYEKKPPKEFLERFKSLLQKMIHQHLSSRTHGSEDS

Turning to “IL-21R-Ig fusion protein (from UniProt Q9HBE5 20-232) (Fc fusion)”, the decrease in plasma cell differentiation of memory B cells co-cultured with blood PD-1hi CXCR5+ or PD-1hi CXCR5- CD4+ T cells worked out at 90%.
